In article doi:10.1101/2022.03.17.482250 (bioRxiv, 2022):
Values belong to the molecule of their own block, whether it stands above or below them.

B1: Dynein light intermediate chain (natural protein)
chain: MAPVGVEKKLLLGPNGPAVAAAGDLTSEEEEGQSLWSSILSEVSTRARSKLPSGKNILVFGEDGSGKTTLMTKLQGAEHGKKGRGLEYLYLSVHDEDRDDHTRCNVWILDGDLYHKGLLKFAVSAESLPETLVIFVADMSRPWTVMESLQKWASVLREHIDKMKIPPEKMRELERKFVKDFQDYMEPEEGCQGSPQRRGPLTSGSDEENVALPLGDNVLTHNLGIPVLVVCTKCDAVSVLEKEHDYRDEHLDFIQSHLRRFCLQYGAALIYTSVKEEKNLDLLYKYIVHKTYGFHFTTPALVVEKDAVFIPAGWDNEKKIAILHENFTTVKPEDAYEDFIVKPPVRKLVHDKELAAEDEQVFLMKQQSLLAKQPATPTRASESPARGPSGSPRTQGRGGPASVPSSSPGTSVKKPDPNIKNNAASEGVLASFFNSLLSKKTGSPGSPGAGGVQSTAKKSGQKTVLSNVQEELDRMTRKPDSMVTNSSTENEA
B2: Full-length mouse BICDR1 (natural protein)
chain: MSAFCLGLAGRASAPAEPDSACCMELPAGAGDAVRSPATAAALVSFPGGPGELELALEEELALLAAGERSSEPGEHPQAEPESPVEGHGPPLPPPPTQDPELLSVIRQKEKDLVLAARLGKALLERNQDMSRQYEQMHKELTDKLEHLEQEKHELRRRFENREGEWEGRVSELETDVKQLQDELERQQLHLREADREKTRAVQELSEQNQRLLDQLSRASEVERQLSMQVHALKEDFREKNSSTNQHIIRLESLQAEIKMLSDRKRELEHRLSATLEENDLLQGTVEELQDRVLILERQGHDKDLQLHQSQLELQEVRLSYRQLQGKVEELTEERSLQSSAATSTSLLSEIEQSMEAEELEQEREQLRLQLWEAYCQVRYLCSHLRGNDSADSAVSTDSSMDESSETSSAKDVPAGSLRTALNDLKRLIQSIVDGVEPTVTLLSVEMTALKEERDRLRVTSEDKEPKEQLQKAIRDRDEAIAKKNAVELELAKCKMDMMSLNSQLLDAIQQKLNLSQQLEAWQDDMHRVIDRQLMDTHLKEQSRPAAAAFPRGHGVGRGQEPSTADGKRLFSFFRKI

Assays:
Assay in all cases: cryo-EM structure
[1] = target: Dynactin (pig (endogenous in pig brain)) (UniProt F2Z5G5)
Full-length mouse BICDR1 = target: B2
cryo-EM structure = target: the molecule itself

- stoichiometry N (dynein dimers in the complex) [1]: 2
Molecule: Human cytoplasmic dynein-1 (from UniProt Q14204;Q13409;O43237;Q9NP97) (complex)

Molecule: B1
- binding result (Full-length mouse BICDR1): binds

Molecule: B2
- stoichiometry N (adaptors per dynein-dynactin complex) [1]: 2
- binding result (cryo-EM structure): binds
